# Results: patent publication US20210388087A1
# Where a chain is given by its changes, count along the chain named. Names and notes keep the numbering of the source.
# B1: H183/L072 VL A89R (antibody, name in Kabat numbering, V domains shown)
# VH: QVQLVESGGGLVQPGRSLRLSCAASGFTFSNAWMHWVRQAPGKGLEWVAQIKDKGNAYAAYYAPSVKGRFTISRDDSKNSIYLQMNSLKTEDTAVYYCHYVHYASASTVLPAFGVDAWGQGTTVTVSS
# VL: DIVMTQSPLSLPVTPGEPASISCQASQELVHMNRNTYLHWYQQKPGQAPRLLIYKVSNRFPGVPDRFSGSGSGTDFTLKISRVEAEDVGVYYCRQGTSVPFTFGQGTKLEIK
# B2: H183/L072 VL A89N (antibody, name in Kabat numbering, V domains shown)
# VH: B1 VH
# VL: B1 VL with R94N
# B3: H183/L072 VL F96N (antibody, name in Kabat numbering, V domains shown)
# VH: B1 VH
# VL: B1 VL with R94A, F101N
# B4: H183/L072 VL T92W (antibody, name in Kabat numbering, V domains shown)
# VH: B1 VH
# VL: B1 VL with R94A, T97W
# B5: H183/L072 VL Q90W (antibody, name in Kabat numbering, V domains shown)
# VH: B1 VH
# VL: B1 VL with R94A, Q95W
# B6: H183/L072 VL K50Q (antibody, name in Kabat numbering, V domains shown)
# VH: B1 VH
# VL: B1 VL with K55Q, R94A
# B7: H183/L072 VL F96V (antibody, name in Kabat numbering, V domains shown)
# VH: B1 VH
# VL: B1 VL with R94A, F101V
# B8: H183/L072 VL Q90R (antibody, name in Kabat numbering, V domains shown)
# VH: B1 VH
# VL: B1 VL with R94A, Q95R
# B9: H183/L072 VL Q90V (antibody, name in Kabat numbering, V domains shown)
# VH: B1 VH
# VL: B1 VL with R94A, Q95V
# B10: H183/L072 VL K50N (antibody, name in Kabat numbering, V domains shown)
# VH: B1 VH
# VL: B1 VL with K55N, R94A
# B11: H183/L072 VL P95W (antibody, name in Kabat numbering, V domains shown)
# VH: B1 VH
# VL: B1 VL with R94A, P100W
# B12: H183/L072 VL V94G (antibody, name in Kabat numbering, V domains shown)
# VH: B1 VH
# VL: B1 VL with R94A, V99G
# B13: H183/L072 VL G91W (antibody, name in Kabat numbering, V domains shown)
# VH: B1 VH
# VL: B1 VL with R94A, G96W
# B14: H183/L072 VL Q90N (antibody, name in Kabat numbering, V domains shown)
# VH: B1 VH
# VL: B1 VL with R94A, Q95N
# B15: H183/L072 VL F96G (antibody, name in Kabat numbering, V domains shown)
# VH: B1 VH
# VL: B1 VL with R94A, F101G
# B16: H183/L072 VL V94W (antibody, name in Kabat numbering, V domains shown)
# VH: B1 VH
# VL: B1 VL with R94A, V99W
# B17: H183/L072 VL K50G (antibody, name in Kabat numbering, V domains shown)
# VH: B1 VH
# VL: B1 VL with K55G, R94A
# B18: H183/L072 VL G91F (antibody, name in Kabat numbering, V domains shown)
# VH: B1 VH
# VL: B1 VL with R94A, G96F
# B19: H183/L072 VL P95F (antibody, name in Kabat numbering, V domains shown)
# VH: B1 VH
# VL: B1 VL with R94A, P100F
# B20: H183/L072 VL G91R (antibody, name in Kabat numbering, V domains shown)
# VH: B1 VH
# VL: B1 VL with R94A, G96R
# B21: H183/L072 VL P95G (antibody, name in Kabat numbering, V domains shown)
# VH: B1 VH
# VL: B1 VL with R94A, P100G
# B22: H183/L072 VL P95V (antibody, name in Kabat numbering, V domains shown)
# VH: B1 VH
# VL: B1 VL with R94A, P100V
# B23: H183/L072 VL F96R (antibody, name in Kabat numbering, V domains shown)
# VH: B1 VH
# VL: B1 VL with R94A, F101R
# B24: H183/L072 VL V51W (antibody, name in Kabat numbering, V domains shown)
# VH: B1 VH
# VL: B1 VL with V56W, R94A
# B25: H183/L072 VL Q90G (antibody, name in Kabat numbering, V domains shown)
# VH: B1 VH
# VL: B1 VL with R94A, Q95G
# B26: H183/L072 VL K50V (antibody, name in Kabat numbering, V domains shown)
# VH: B1 VH
# VL: B1 VL with K55V, R94A
# B27: H183/L072 VL T97W (antibody, name in Kabat numbering, V domains shown)
# VH: B1 VH
# VL: B1 VL with R94A, T102W
# B28: H183/L072 VL K50W (antibody, name in Kabat numbering, V domains shown)
# VH: B1 VH
# VL: B1 VL with K55W, R94A
# B29: H183/L072 VL P95R (antibody, name in Kabat numbering, V domains shown)
# VH: B1 VH
# VL: B1 VL with R94A, P100R
# B30: H183/L072 VL G91V (antibody, name in Kabat numbering, V domains shown)
# VH: B1 VH
# VL: B1 VL with R94A, G96V
# B31: H183/L072 VL G91N (antibody, name in Kabat numbering, V domains shown)
# VH: B1 VH
# VL: B1 VL with R94A, G96N
# B32: H183/L072 VL K50F (antibody, name in Kabat numbering, V domains shown)
# VH: B1 VH
# VL: B1 VL with K55F, R94A
# B33: H183/L072 VL P95N (antibody, name in Kabat numbering, V domains shown)
# VH: B1 VH
# VL: B1 VL with R94A, P100N
# B34: H183/L072 VL F96W (antibody, name in Kabat numbering, V domains shown)
# VH: B1 VH
# VL: B1 VL with R94A, F101W
# B35: H183/L072 VL V51N (antibody, name in Kabat numbering, V domains shown)
# VH: B1 VH
# VL: B1 VL with V56N, R94A
# B36: H183/L072 VL Q90F (antibody, name in Kabat numbering, V domains shown)
# VH: B1 VH
# VL: B1 VL with R94A, Q95F
# B37: H183/L072 VL V51F (antibody, name in Kabat numbering, V domains shown)
# VH: B1 VH
# VL: B1 VL with V56F, R94A
# B38: H183/L072 VL T31G (antibody, name in Kabat numbering, V domains shown)
# VH: B1 VH
# VL: B1 VL with T36G, R94A
# B39: H183/L072 VL H34G (antibody, name in Kabat numbering, V domains shown)
# VH: B1 VH
# VL: B1 VL with H39G, R94A
# B40: H183/L072 VL L27bN (antibody, name in Kabat numbering, V domains shown)
# VH: B1 VH
# VL: B1 VL with L29N, R94A
# B41: H183/L072 VL L33S (antibody, name in Kabat numbering, V domains shown)
# VH: B1 VH
# VL: B1 VL with L38S, R94A
# B42: H183/L072 VL H34S (antibody, name in Kabat numbering, V domains shown)
# VH: B1 VH
# VL: B1 VL with H39S, R94A
# B43: H183/L072 VL T31N (antibody, name in Kabat numbering, V domains shown)
# VH: B1 VH
# VL: B1 VL with T36N, R94A
# B44: H183/L072 VL Y32S (antibody, name in Kabat numbering, V domains shown)
# VH: B1 VH
# VL: B1 VL with Y37S, R94A
# B45: H183/L072 VL Y32T (antibody, name in Kabat numbering, V domains shown)
# VH: B1 VH
# VL: B1 VL with Y37T, R94A
# B46: H183/L072 VL H34Q (antibody, name in Kabat numbering, V domains shown)
# VH: B1 VH
# VL: B1 VL with H39Q, R94A
# B47: H183/L072 VL H34N (antibody, name in Kabat numbering, V domains shown)
# VH: B1 VH
# VL: B1 VL with H39N, R94A
# Target: Human CD3eg linker (human)
# Assay: SPR; fold vs parent H183/L072
# Chain of Human CD3eg linker (human) (chain, as listed by the source limits assumed): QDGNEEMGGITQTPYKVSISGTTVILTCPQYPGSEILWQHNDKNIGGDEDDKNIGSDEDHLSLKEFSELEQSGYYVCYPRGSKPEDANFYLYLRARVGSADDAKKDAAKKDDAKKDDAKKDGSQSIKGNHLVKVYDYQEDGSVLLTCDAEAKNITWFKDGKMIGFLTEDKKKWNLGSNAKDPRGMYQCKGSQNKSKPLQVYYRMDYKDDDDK
row,fold change of affinity [fold],Binder
1,0,B1
2,0,B2
3,0,B3
4,0,B4
5,0,B5
6,0,B6
7,0,B7
8,0,B8
9,0,B9
10,0,B10
11,0,B11
12,0,B12
13,0,B13
14,0,B14
15,0,B15
16,0,B16
17,0,B17
18,0,B18
19,0,B19

row,fold change of affinity [fold],Binder
1,0,B20
2,0,B21
3,0,B22
4,0,B23
5,0,B24
6,0,B25
7,0,B26
8,0,B27
9,0,B28
10,0,B29
11,0,B30
12,0,B31
13,0,B32
14,0,B33
15,0,B34
16,0,B35
17,0,B36
18,0,B37

# Target: Human CD137 ECD (human)
# Assay: Biacore SPR, vs parent H183/L072
# Chain of Human CD137 ECD (human) (chain, as listed by the source limits assumed): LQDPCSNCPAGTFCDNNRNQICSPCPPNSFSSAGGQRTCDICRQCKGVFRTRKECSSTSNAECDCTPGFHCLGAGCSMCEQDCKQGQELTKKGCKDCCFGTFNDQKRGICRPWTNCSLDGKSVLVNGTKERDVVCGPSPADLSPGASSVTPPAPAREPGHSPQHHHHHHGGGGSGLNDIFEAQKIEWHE
row,fold change of affinity [fold],Binder
1,0,B38
2,0,B39
3,0,B40
4,0,B41
5,0,B42
6,0,B43
7,0,B44
8,0,B45
9,0,B46
10,0,B47
